{
  "source": "paper PMC3849016",
  "origin": "cited, not measured here",
  "biological_target": "VEGFR2 (vascular endothelial growth factor receptor 2) (UniProt P35968)",
  "sequence (P35968 whole entry)": "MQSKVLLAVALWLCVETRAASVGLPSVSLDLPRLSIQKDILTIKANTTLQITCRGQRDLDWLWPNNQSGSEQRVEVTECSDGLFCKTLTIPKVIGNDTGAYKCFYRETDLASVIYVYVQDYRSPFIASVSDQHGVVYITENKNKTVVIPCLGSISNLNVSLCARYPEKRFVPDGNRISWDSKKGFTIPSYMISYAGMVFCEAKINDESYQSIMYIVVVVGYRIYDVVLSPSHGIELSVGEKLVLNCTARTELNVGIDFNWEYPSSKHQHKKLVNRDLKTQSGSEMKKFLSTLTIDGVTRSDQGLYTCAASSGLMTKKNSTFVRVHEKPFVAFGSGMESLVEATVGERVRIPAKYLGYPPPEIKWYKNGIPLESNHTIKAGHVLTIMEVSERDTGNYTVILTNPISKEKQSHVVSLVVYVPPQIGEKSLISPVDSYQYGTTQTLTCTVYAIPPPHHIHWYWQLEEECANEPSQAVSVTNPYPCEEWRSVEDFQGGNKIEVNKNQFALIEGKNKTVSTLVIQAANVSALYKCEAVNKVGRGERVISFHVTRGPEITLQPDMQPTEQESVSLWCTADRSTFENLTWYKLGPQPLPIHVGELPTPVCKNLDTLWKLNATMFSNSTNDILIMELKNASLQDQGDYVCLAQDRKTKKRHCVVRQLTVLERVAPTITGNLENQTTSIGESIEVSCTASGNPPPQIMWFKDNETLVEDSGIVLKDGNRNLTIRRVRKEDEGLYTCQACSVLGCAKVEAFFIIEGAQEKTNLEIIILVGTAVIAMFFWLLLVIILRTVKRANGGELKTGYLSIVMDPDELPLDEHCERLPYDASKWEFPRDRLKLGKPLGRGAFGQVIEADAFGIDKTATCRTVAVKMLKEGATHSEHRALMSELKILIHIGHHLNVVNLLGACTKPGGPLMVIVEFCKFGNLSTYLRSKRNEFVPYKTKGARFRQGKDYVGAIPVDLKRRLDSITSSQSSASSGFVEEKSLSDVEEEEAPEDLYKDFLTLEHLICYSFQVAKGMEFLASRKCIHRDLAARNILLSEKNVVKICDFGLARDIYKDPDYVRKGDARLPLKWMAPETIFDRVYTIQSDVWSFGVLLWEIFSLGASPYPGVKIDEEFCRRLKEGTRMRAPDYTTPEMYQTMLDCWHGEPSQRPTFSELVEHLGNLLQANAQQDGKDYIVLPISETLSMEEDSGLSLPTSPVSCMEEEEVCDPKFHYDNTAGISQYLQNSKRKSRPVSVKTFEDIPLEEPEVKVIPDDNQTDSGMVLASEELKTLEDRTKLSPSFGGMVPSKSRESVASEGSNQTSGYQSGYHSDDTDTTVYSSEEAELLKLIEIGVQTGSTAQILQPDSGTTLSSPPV",
  "conditions": "printed Z = 5-N-(benzylcarboxyamide)-2'-deoxyuridine (BzdU), written here as U at every Z; all other residues are DNA; 5' H2N-C6; not stated for the supplier …",
  "data": [
    {"sequence": "ACGAGCUACGACGUCUGGUGUAAUUUAUAAAGACACUGUGUAUAUCAACAA [anti-VEGFR2 DNA aptamer (Aptamer Science Cat. 186)]", "values": [
      {"measurement": "Kd", "result": 0.12, "unit": "nM"}
    ]}
  ]
}
